Assay [1] addresses T1, mouse MASP-2 D4-6 recombinant protein (mouse, UniProt Q91WP0 298-685).
T1 construct: Made 'similarly' to the human protein (N-terminal his6 tag)
The assay is described as follows: SPR Biacore T200, antibody on Protein A chip, antigen as analyte, 1:1 fit. The procedure:
(§1) Surface plasmon resonance technology (SPR/Biacore T200) was used to capture 0.1 μg/ml of the antibody on the surface of the Protein A chip, with a capture time of 40 seconds and a flow rate of 10 μl/min. The chip was washed with buffer until the baseline leveled off, then gradient-diluted antigen was flowed through the chip at the flow rate of 30 μl/min, with a binding time of 120 sec and a dissociation time of 600 sec. The equilibrium dissociation constant (KD) was obtained by fitting in Langmuir 1:1 kinetics mode.

In assay [2] the target is T2, rat MASP-2 D4-6 recombinant protein (rat, UniProt Q9JJS8 298-685).
T2 construct: Made 'similarly' to the human protein (N-terminal his6 tag)
Described as above. The procedure:
as §1

The target of assay [3] is T3, Cynomolgus monkey MASP-2 D4-6 recombinant protein (Cynomolgus monkey, UniProt O00187 298-686 (human entry), limits assumed).
T3 construct: Made 'similarly' to the human protein (N-terminal his6 tag)
The description is as above. Here is the method:
as §1

Assay [4] has as its target T4, human MASP-2 D4-6 recombinant protein (human, UniProt O00187 298-686).
T4 construct: his6 tag fused at the N-terminus, made in HEK293E; also called enzymatic activity domains CCP1-CCP2-SP of human MASP-2
Described as above. The procedure:
as §1

Assay [5] concerns the target T1, mouse MASP-2 D4-6 recombinant protein. As to the kind of experiment: ELISA, antigen coated, chimeric IgG titrated, anti-human Fc-HRP. On the technique in general: In an ELISA, binding on a coated surface is turned into a signal by an enzyme label.
For assay [6], the target named is T2, rat MASP-2 D4-6 recombinant protein. Described as above.
Assay [7] concerns the target T3, Cynomolgus monkey MASP-2 D4-6 …. Described as above.
Assay [8] has as its target T4, human MASP-2 D4-6 recombinant protein. The description is as above.
Assay [9] concerns the target T1, mouse MASP-2 D4-6 recombinant protein. As to the kind of experiment: SPR Biacore T200, Flag-tagged Fab captured via anti-Flag antibody on Protein A chip, antigen as analyte, 1:1 fit. Here is the method: (§2) The surface plasmon resonance (SPR/Biacore T200) technique was used to capture the anti-Flag antibody with Protein A chip. 10 μg/ml purified Fab antibody containing Flag tag was captured on the chip surface, with a capture time of 40 sec and a flow rate of […]. The chip was washed with buffer until the baseline leveled off, then gradient-diluted MASP-2 antigens were injected as the analytes successively to determine the affinity between Fab and different species antigens. The data were fitted by Biacore T200 Evaluation software 3.1 software in Langmuir 1:1 kinetics mode.
(SPR reads the build-up and loss of mass on a sensor chip optically.)

Assay [10] concerns the target T2, rat MASP-2 D4-6 recombinant protein. Described as above. The procedure: as §2
The target in assay [11] is T3, Cynomolgus monkey MASP-2 D4-6 …. The assay is described as above. The procedure:
as §2

The target of assay [12] is T4, human MASP-2 D4-6 recombinant protein. Described as above. The procedure: as §2

T3 sequence (O00187 other isoform, or with tags, fused parts or gaps limits assumed): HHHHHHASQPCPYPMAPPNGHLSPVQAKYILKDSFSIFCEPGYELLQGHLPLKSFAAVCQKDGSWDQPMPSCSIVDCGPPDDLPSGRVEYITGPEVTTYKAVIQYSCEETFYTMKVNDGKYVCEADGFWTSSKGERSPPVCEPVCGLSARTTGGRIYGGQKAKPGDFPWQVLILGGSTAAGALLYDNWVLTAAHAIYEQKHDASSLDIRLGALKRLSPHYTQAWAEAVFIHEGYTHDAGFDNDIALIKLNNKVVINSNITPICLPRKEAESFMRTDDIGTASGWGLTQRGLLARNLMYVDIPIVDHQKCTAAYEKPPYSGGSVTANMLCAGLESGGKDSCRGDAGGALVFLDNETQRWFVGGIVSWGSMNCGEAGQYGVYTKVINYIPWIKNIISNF
T1 sequence (Q91WP0 other isoform, or with tags, fused parts or gaps limits assumed): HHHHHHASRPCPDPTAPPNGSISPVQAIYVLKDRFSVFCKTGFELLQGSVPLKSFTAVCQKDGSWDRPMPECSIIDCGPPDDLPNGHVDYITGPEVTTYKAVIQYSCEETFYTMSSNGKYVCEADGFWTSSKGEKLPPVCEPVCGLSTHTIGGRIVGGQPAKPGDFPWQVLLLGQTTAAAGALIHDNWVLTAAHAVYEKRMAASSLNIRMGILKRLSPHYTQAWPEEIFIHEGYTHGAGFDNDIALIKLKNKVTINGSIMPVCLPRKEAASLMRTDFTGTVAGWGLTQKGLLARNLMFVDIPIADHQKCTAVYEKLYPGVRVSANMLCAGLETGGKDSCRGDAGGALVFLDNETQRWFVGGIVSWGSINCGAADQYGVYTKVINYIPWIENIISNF
T2 sequence (Q9JJS8 other isoform, or with tags, fused parts or gaps limits assumed): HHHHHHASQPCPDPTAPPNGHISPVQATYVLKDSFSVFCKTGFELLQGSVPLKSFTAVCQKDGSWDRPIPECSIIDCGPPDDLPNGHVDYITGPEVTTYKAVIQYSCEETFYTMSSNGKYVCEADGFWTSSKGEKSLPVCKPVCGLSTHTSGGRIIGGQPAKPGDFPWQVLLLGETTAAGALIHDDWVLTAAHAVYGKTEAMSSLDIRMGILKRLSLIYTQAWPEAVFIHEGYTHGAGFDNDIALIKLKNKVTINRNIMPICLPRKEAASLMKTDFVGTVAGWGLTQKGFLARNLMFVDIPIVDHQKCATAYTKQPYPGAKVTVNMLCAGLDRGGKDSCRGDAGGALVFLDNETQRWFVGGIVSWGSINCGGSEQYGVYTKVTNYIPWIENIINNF
T4 sequence (O00187 other isoform, or with tags, fused parts or gaps limits assumed): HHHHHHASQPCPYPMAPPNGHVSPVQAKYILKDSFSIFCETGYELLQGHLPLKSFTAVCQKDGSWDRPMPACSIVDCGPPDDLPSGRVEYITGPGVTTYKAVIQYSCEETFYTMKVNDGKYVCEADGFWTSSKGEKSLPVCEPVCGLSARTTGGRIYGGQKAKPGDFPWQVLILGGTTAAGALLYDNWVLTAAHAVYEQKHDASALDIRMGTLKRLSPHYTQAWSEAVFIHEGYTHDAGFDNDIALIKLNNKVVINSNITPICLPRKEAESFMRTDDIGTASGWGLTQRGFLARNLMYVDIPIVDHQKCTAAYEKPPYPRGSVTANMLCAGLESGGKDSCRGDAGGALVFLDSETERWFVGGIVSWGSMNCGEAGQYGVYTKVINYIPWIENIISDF

B1: chimeric antibody 3B9 (antibody, V domains shown)
VH: DVQLQESGPGLVRPSQSLSLTCTVTGYSITSDYAWNWIRQFPGNKLEWMGYISYSGRTSYNPSLKSRLSITRDTSKNQFFLQLNSVSSADTATYYCAIISTAVDFDYWGQGTTLTVSS
VL: QTVLTQSPAIMSASLGERVTMTCTASSSVSSSYLLWYQQKPGSSPKLWIYSTSKLASGVPVRFSGSGSGTSYSLTISSMEADDAATYYCLQYNRSPLTFGAGTKLELK
In the case of B1, the Kd in assay [1] is 476 nM; in assay [2] it was 1040 nM; in [3], 0.051 nM; in assay [4], 0.067 nM. For the same molecule, the EC50 is 4.39 nM in assay [5], 1.62 nM in [6], 0.038 nM in assay [7] and 0.025 nM in assay [8].

B2: chimeric antibody 28O14 (antibody, V domains shown)
VH: QVQLQQSGTELARPGASVRMSCKASGYTFRSHTMHWVKQRPGQGLEWIGYINPSTGYINYNQKFKDKATLTADKSSSTAYMQLSSLTSEDSAVYYCARSNYSYYYGMDYWGQGTSVTVSS
VL: DIVMTQSHKFMSTSVGDRVTITCKASQDVNTAVAWYQQKPGQSPKLLIYSASYRYTGVPDRFTGSGSGTDFTFTISSLQAEDLAVYYCQQHYNIPLTFGAGTKLELK
With B2, the Kd in assay [1] was determined as 767 nM; in assay [2] it was 162 nM; in assay [3], 0.01 nM; in [4] it was 0.09 nM. Also, the EC50 in [7] was 0.043 nM; in [8], 0.033 nM.

B3: Fab antibody 16B11 (Fab, V domains shown)
VH: QMQLQESGPGLVKPSQSLSLTCTVTGYSITSDYAWNWIRQFPGNKLEWMGYISYSGRTSYNPSLKSRISITRDTSKNQFFLQLNSVTTEDTATYYCARHYGDYWGQGTTLTVSS
VL: DIVMTQSQKLMSTSVGDRVSVTCKASQNVGTNVAWYQQKPGQSPKALIYSASYRNSGVPDRFTGSGSGTDFTLTISNVQSEDLAEYFCQQFNTNPLTFGSGTKLEIK
notes: Purified murine Fab with Flag tag from the phage display library; also called mAb 16B11
For B3, the Kd in [9] turned out to be 1.76 nM; in [10], 5.06 nM; in [11], 0.109 nM; in [12], 0.0407 nM. Moreover, the koff in assay [9] was found to be 0.00811 s⁻¹; in assay [10], 0.00931 s⁻¹; in [11], 0.000181 s⁻¹; in [12], 8.75e-05 s⁻¹. Moreover, the kon in assay [9] came to 4.61e+06 M⁻¹ s⁻¹; in [10], 1.84e+06 M⁻¹ s⁻¹; in assay [11], 1.66e+06 M⁻¹ s⁻¹; in assay [12], 2.15e+06 M⁻¹ s⁻¹.

B4: Fab antibody 14F11 (Fab, V domains shown)
VH: QVQLQQSGPQLLRPGASVKISCKASGFSFTNHWIHWVKQRPGQGLEWIGMIDPSDSETGLNQKFRDKATLTVDKSSSTAYMHLNSPTSEDSAVYYCARLGIHDGYYIYAMDFWGQGTSVTVSS
VL: NIVMTQSPKSMSMSVGERVTLSCKASENVGTYVSWYQQKPEQSPKLLIYGASNRYTGVPDRFTGSGSATDFTLTISSVQAEDLADYHCGQSYSYPLTFGAGTKLELK
notes: Purified murine Fab with Flag tag from the phage display library; also called mAb 14F11
Consider B4, for which the Kd in assay [9] stood at 18 nM; in assay [10], 0.546 nM; in assay [11], 4.66 nM; in assay [12], 0.172 nM. The koff in [9] is 1.16 s⁻¹; in assay [10], 0.00182 s⁻¹; in assay [12] it was 0.000163 s⁻¹. The kon in assay [9] was found to be 6.44e+07 M⁻¹ s⁻¹; in assay [10], 3.34e+06 M⁻¹ s⁻¹; in assay [12] it was 948000 M⁻¹ s⁻¹.

B5: chimeric antibody 25L15 (antibody, V domains shown)
VH: KVKLVESGGDLVKPGGSLKISCAASGFTFSNYAMSWIRQTPDKRLEWVATVSSGGPYTYYPDSVKGRFTISRDNAENTLYLQMSSLRSDDTAIYYCARQIYSDYDVTYWGQGTLVTVSA
VL: QIVLSQSPAILSASPGETVTMTCRVSSSVSYMYWLQQKPGSSPKPWIYATSNLASGVPARFSGSGSGTSYSLTITRVEAEDAATYYCQQWSFRPWTFGGGTKLEIK
As for B5, the Kd in [1] stood at 499 nM; in [2] it was 167 nM; in assay [3], 0.92 nM; in assay [4], 0.12 nM. For the same molecule, the 50% effective concentration (EC50) in assay [5] amounted to 0.023 nM; in [6], 0.021 nM; in [7] it was 0.008 nM; in assay [8] it was 0.012 nM.

B6: chimeric antibody 16A17 (antibody, V domains shown)
VH: DVQLQESGPGLVKPSQSLSLTCTVTGYSITSDYAWKWIRQFPGNKLEWMGYISYSGSTSYHPSLKGRISITRDTSKNQFFLQLNSVTADDTATYYCAILGYYAMDYWGQGTSVTVSS
VL: DIVMTQSQKFMSTSVGDRVSITCKASQNVRVDVAWYQQKSGQSPRALIYLASNRHTGVPDRFTGSGSGTDFTLTITNVQSEDLADYFCPQHWSYPLTFGGGTKLEIK
In the case of B6, the Kd is 487 nM in [1], 0.063 nM in [3] and 0.008 nM in [4]. Besides, the EC50 in assay [5] was 1.97 nM; in assay [6], 4.3 nM; in assay [7] it was 0.014 nM; in [8], 0.014 nM.

As usually defined, the Kd is the free concentration of one partner at which half of the binding sites on the other are occupied at equilibrium, for simple one-to-one binding. What is called EC50 is the midpoint of the concentration-response curve. One may read the koff as a measure of how fast the partners let go of each other. The kon is the rate constant with which the complex forms.

Source of the values: patent US20240067751A1 (KEYMED BIOSCIENCES, published 2024).
